In assay [1] the target is PD1 (human) (UniProt Q15116). In words: cell-based or functional assay.
For assay [2], the target named is PD-L1 (human) (UniProt Q9NZQ7). Put plainly: cell-based or functional assay.
Sequence of UniProt Q9NZQ7 (Q9NZQ7 19-290): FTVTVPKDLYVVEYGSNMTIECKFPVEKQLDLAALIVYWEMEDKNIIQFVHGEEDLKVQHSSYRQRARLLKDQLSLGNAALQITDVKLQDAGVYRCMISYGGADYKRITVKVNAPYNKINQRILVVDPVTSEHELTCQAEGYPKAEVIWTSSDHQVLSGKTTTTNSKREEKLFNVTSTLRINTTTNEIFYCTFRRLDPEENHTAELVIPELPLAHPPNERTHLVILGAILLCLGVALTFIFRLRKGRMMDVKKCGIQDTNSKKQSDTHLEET

Sequence of UniProt Q15116 (Q15116 25-288): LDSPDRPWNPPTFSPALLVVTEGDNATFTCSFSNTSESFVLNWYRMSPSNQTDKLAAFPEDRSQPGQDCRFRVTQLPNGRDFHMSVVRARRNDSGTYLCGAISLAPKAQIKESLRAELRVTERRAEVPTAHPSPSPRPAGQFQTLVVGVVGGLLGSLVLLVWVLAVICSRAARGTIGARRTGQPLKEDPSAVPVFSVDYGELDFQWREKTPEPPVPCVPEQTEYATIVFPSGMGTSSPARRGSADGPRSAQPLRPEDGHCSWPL

As to Anti-PD1 (clone J116) (antibody), in assay [1], the MEDI-565-mediated cytolysis of SW1463 with fresh T cells in the presence of anti-PD1 came to 66.3%; the tumor killing in second round, T cells previously incubated with MEDI-565 and tumor, anti-PD1 added is 37.1%; the tumor-specific cytolytic activity, fresh T cells, PD1 inhibition alone amounted to 49.9%.
Anti-PD-L1 (clone MIH1) (antibody) came in with a tumor-specific cytolytic activity, fresh T cells, PD-L1 inhibition alone in assay [2] of 49.9%.

These data come from patent US20170015758A1.
